Measured values from article doi:10.1101/2022.10.20.22281069 (medRxiv, 2022).

Biological target: PCNA-WT (Proliferating Cell Nuclear Antigen, wild type) (human, UniProt P12004 1-261)
Assay: ITC

Sequence of PCNA-WT (Proliferating Cell Nuclear Antigen, wild type) (P12004 whole entry): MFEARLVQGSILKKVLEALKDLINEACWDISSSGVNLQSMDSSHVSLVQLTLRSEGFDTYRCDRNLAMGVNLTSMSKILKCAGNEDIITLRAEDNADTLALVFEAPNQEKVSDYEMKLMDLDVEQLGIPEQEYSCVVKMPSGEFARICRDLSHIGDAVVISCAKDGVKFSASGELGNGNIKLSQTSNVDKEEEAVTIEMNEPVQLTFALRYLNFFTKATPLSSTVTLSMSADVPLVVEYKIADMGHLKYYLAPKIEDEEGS

Row | binding result | Binder
1 | binds | KANRQVSITGFFQRK [pol δ p66 PIP-box peptide]
2 | binds | STQGRLDDFFKVTGSL [FEN1 PIP-box peptide]
3 | binds | DKSGMKSIDTFFGVKNKKKIGKV [RNaseH2B PIP-box peptide]
